In assay [1] the target is T1, full-length Flag-CHD4 (chromodomain helicase DNA-binding protein 4) (UniProt Q14839 1-1912).
T1 construct: FLAG-tagged, made in recombinant baculovirus infected Sf9 cells and purified on Flag-agarose; also called purified CHD4; full-length CHD4
Kind of assay: ELISA, plate coated with 1 µM biotinylated VGN73, Flag-CHD4 protein titrated, OD 450 nm. Background: ELISA stands for enzyme-linked immunosorbent assay.

Assay [2] deals with T2, 1531-1912.
T2 construct: Member of the group m7; The map draws it with CHDCT2 only, without PHD; also called Flag-CHD4 deletion protein 1531-1912
In words: ELISA, plate coated with 1 µM biotinylated VGN73, Flag-CHD4 deletion protein titrated, OD 450 nm.

Assay [3] addresses T3, 685-1245.
T3 construct: Member of the group m7; The map draws it with the ATPase and C-terminal helicase boxes only, without PHD; also called Flag-CHD4 deletion protein 685-1245
Described as above.

Assay [4] addresses T4, 1250-1912.
T4 construct: Member of the group m7; The map draws it with the two DUF domains and CHDCT2, without PHD; also called Flag-CHD4 deletion protein 1250-1912
The description is as above.

In assay [5] the target is T1, full-length Flag-CHD4 (chromodomain …). Kind of assay: peptide pull-down: 100 nM purified Flag-CHD4 with 1 µg N-biotinylated peptide, anti-Flag immunoblot. On the technique in general: Immunoblotting shows a protein as a band on a membrane.
Assay [6] concerns the target T5, CHD4 (endogenous, in PEL cells BC3 / BCBL-1) (UniProt Q14839 1-1912).
T5 construct: Cellular protein in treated cells and their lysates
In words: streptavidin pull-down from BC3 cells incubated with 10 µM biotinylated peptide, anti-CHD4 immunoblot.

The target of assay [7] is T1, full-length Flag-CHD4 (chromodomain …). Kind of assay: BLI, biotinylated peptide on streptavidin tips, full-length Flag-CHD4 at 0-50 nM in solution. (In BLI a coated tip is dipped into the sample, and binding shifts an interference pattern.)

Non-standard residues stand in square brackets, D forms with d. No end group written: not given here. *: point of attachment. Biotin = O=C1N[C@H]2[C@H](CS[C@H]2CCCCC(=O)*)N1; Orn = NCCC[C@H](N)C(=O)O; βAla = NCCC(=O)O

T1 sequence (Q14839 whole entry): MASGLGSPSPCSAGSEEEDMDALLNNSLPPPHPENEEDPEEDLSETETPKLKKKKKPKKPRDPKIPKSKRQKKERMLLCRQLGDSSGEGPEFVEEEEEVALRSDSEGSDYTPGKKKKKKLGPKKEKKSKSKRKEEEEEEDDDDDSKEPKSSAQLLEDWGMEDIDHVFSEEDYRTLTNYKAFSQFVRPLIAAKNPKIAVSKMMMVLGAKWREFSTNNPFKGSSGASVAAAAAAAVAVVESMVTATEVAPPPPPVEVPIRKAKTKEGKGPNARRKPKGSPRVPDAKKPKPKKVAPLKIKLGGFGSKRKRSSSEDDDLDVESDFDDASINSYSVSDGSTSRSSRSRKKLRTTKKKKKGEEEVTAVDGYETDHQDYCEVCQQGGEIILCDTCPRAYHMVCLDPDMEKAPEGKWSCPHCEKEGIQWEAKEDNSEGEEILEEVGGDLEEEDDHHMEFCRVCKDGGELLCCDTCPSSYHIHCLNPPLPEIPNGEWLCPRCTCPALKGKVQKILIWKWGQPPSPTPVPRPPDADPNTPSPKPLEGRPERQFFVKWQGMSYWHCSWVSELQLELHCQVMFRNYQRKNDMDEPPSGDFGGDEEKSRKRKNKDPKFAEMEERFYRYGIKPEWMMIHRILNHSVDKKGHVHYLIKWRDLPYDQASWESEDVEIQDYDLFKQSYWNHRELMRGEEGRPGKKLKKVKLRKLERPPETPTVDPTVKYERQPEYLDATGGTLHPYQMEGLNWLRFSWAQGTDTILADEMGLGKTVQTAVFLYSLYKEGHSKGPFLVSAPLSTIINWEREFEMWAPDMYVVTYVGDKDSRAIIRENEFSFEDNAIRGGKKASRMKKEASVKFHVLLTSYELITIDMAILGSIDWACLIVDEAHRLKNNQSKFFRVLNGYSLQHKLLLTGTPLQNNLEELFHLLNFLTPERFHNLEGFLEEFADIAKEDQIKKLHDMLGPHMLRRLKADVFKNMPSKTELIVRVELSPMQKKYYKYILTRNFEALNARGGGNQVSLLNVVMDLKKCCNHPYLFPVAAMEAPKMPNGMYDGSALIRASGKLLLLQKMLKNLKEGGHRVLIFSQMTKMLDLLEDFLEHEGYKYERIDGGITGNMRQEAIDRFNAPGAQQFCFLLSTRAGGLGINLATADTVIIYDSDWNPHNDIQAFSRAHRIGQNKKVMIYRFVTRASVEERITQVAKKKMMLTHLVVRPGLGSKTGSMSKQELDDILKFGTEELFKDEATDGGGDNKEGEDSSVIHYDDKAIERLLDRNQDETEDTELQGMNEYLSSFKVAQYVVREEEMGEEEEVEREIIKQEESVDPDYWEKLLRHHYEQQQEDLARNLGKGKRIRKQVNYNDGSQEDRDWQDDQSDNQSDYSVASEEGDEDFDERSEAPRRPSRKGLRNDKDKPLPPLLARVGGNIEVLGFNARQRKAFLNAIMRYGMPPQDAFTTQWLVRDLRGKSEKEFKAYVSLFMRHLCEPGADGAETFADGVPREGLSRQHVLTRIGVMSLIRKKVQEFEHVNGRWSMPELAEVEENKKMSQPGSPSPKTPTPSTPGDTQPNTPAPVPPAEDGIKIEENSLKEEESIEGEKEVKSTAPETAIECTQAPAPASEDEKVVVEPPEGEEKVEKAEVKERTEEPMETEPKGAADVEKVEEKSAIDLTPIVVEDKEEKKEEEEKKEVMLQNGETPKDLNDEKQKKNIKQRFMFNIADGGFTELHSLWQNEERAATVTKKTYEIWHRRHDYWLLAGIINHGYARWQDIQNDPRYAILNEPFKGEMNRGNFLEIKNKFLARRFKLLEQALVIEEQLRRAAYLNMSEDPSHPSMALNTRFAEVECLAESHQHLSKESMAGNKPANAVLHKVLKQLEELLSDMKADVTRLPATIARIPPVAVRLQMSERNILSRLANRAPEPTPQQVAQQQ
T5 sequence (Q14839 whole entry): as above

B1: VGN73 (TAT-VGN73 fusion peptide) (peptide)
peptide: [dR]KKRR[Orn]RRR[βAla]WKHAVIFWGNDPYGLKK
modifications: also: N-terminal biotin only in ELISA, BLI and pull-down forms
notes: Used without biotin in cell treatment assays; also called LANA peptide; cell-penetrating LANA peptide
Consider B1, for which the “EC50 (read off the curve)” value in assay [1] is approximately 10 nM. For the same molecule, the binding result in assay [2], in assay [3] and in assay [4] was “no binding (tested: 100 nM)” in each case.

B2: #5 (peptide)
peptide: Biotin-IASSPPGDNTPDDDPQPGPSREYR
notes: also called N-Biotin LANA peptide 5; KSHV LANA 922-945
For the molecule B2, the binding result in assay [5] is “no binding (tested: 1 µg peptide with 100 nM CHD4)”.

B3: #1 (peptide)
peptide: Biotin-EQELEEVEEQEEQELEEVEEQEQ
notes: also called N-Biotin LANA peptide 1; KSHV LANA 872-894 as printed
As to B3, the binding result in assay [5] was “no binding (tested: 1 µg peptide with 100 nM CHD4)”.

B4: #8 (peptide)
peptide: Biotin-QPPVPYRQIDDCPAKARPQHIFYR
notes: also called N-Biotin LANA peptide 8; KSHV LANA 977-1000
B4: the binding result in assay [5] is “no binding (tested: 1 µg peptide with 100 nM CHD4)”.

B5: #4 (peptide)
peptide: Biotin-EDEMEVDYPVVSTHEQIASSPPG
notes: also called N-Biotin LANA peptide 4; KSHV LANA 906-928
With B5, the binding result in assay [5] is reported as “no binding (tested: 1 µg peptide with 100 nM CHD4)”.

In the case of [dR]KKRR[Orn]RRR[βAla]AKHAVISAGNDPYGLKK (also: N-terminal biotin only in BLI form) [VGN73 mutant peptide (TAT-VGN73 mutant fusion peptide)], the binding result in assay [6] is “no binding (tested: 10 µM)”; in assay [7], “no binding (tested: 50 nM)”.

B6: modified TAT peptide (peptide)
peptide: RKKRRXRRRA
modifications: d-Arg at position 1; ornithine (ORN) at position 6; beta-alanine at position 10; N-terminal biotin in BLI
notes: also called TAT alone; biotinylated TAT peptide
Consider B6, for which the binding result was “no binding (tested: 10 µM)” in assay [6] and “no binding (tested: 50 nM)” in assay [7].

B7: #3 (peptide)
peptide: Biotin-ETVEEPIILHGSSSEDEMEVDYP
notes: also called N-Biotin LANA peptide 3; KSHV LANA 892-914
As for B7, the binding result in assay [5] is given as “no binding (tested: 1 µg peptide with 100 nM CHD4)”.

B8: #2 (peptide)
peptide: Biotin-EEVEEQEQQGVEQQEQETVEE
notes: also called N-Biotin LANA peptide 2; KSHV LANA 876-896 as printed
Consider B8, for which, in assay [5], the binding result was “no binding (tested: 1 µg peptide with 100 nM CHD4)”.

As usually defined, the EC50 (read off the curve) is the midpoint of the concentration-response curve.

Source of the values: patent publication US20250282834A1 (University of California, published 2025).
